{"source": "paper PMC3281653", "about": "(The Journal of Biological Chemistry, 2011)", "molecules": {"B1": {"name": "IR1 (RanBP2 residues 2631–2695) (domain or fragment)", "chain": "DVLIVYELTPTAEQKALATKLKLPPTFFCYKNRPDYVSEEEEDDEDFETAVKKLNGKLYLDGSEK"}}, "key": {"[1]": {"target": "RanGAP1-SUMO1/UBC9 (human) (UniProt P46060)", "sequence (P46060 419-578, chain 1 of 3)": "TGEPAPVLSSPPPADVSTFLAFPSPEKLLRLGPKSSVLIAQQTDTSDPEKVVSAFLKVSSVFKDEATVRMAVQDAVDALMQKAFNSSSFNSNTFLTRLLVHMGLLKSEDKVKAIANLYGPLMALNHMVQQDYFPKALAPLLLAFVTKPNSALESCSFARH", "sequence (P63165 18-97, chain 2 of 3, further chain)": "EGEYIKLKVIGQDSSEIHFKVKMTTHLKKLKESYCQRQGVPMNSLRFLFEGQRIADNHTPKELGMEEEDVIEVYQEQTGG", "sequence (P63279 whole entry, chain 3 of 3, further chain)": "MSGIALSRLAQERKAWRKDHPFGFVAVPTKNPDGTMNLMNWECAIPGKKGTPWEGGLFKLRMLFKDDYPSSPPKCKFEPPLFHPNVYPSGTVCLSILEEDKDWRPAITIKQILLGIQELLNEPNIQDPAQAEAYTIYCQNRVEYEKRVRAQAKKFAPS"}, "[2]": {"target": "RanGAP1-SUMO1/UBC9 (human) (UniProt P46060)", "remark": "listed apart in the source"}, "UBC9": {"target": "UBC9 (human, UniProt P63279)", "sequence (P63279 whole entry)": "as the sequence (P63279 whole entry, chain 3 of 3, further chain) above", "assay": "crystal structure"}}, "note": "Like-named read-outs stand apart in the source and are kept apart here.", "data": [{"molecule": "IR2SIM-IR1_(II–V) (domain or fragment)", "values": [{"measurement": "protease protection from SENP1: protection of RanGAP1-SUMO1 against that by IR1", "setting": "[1]", "value": 144, "unit": "fold"}]}, {"molecule": "IR1-M-IR2 (RanBP2 residues 2631–2771) (from UniProt P49792 2631-2771) (domain or fragment)", "values": [{"measurement": "protease protection from SENP1: protection of RanGAP1-SUMO1 against that by IR1", "setting": "[2]", "value": 16, "unit": "fold"}]}, {"molecule": "B1", "values": [{"measurement": "binding result", "setting": "UBC9", "value": "binds"}]}]}
